From publication PMC3601014, “Blood-brain barrier transport of amyloid beta peptides in efflux pump knock-out animals evaluated by in vivo optical imaging” (Fluids and Barriers of the CNS, 2013)
Each block holds one molecule with its values, some of them ahead of it.

Legend:
[1] = Western blot analysis of Aβ peptide solution (monomers/dimers); format: physicochemical; details: dissolved in 10 mM NaOH, HEPES to pH 8.0, data not shown
Description: Aβ1-40 peptide used in this study for optical imaging/tracking is the most abundant Aβ peptide found in the cerebral vasculature and is more soluble than Aβ1-42 peptide. Aβ1-40 peptides (1 mg/vial) were dissolved in 250 μL of 10 mM NaOH, and then 12.5 μL of 1 M HEPES [4-(2-hydroxyethyl)-1-piperazineethanesulfonic acid] was added to bring the pH to 8.0. The peptides were divided into 2 tubes (0.5 mg/tube) and kept at −80°C. Because Aβ peptides are commonly present as beta sheet structure in solution, Western blot analyses of the mixtures were performed, and the majority of the peptides (>95%) were monomers with a small proportion of dimers (data not shown). Aβ1-40 or scrambled Aβ40-1 peptides (0.5 mg, molecular weight 4329.86D) were labeled with the near-infrared fluorescent dye Cy5.5 (molecular weight 1128.42D) using the labeling kit (Cy5.5™ Mono NHS ester) as per manufacturer’s instructions.

[2] = system: Abcb1 and Abcg2; set-up: method as in PMID 22391220; details: in situ brain perfusion, Abcb1-deficient mice; cited from earlier work
[3] = Aβ immunohistochemistry in brain sections (6E10 antibody); format: in vivo, mouse; details: 100 μg i.v., brains collected 8 h post-injection; wild-type and Abcg2-KO mice; 3 animals per group
Source text: The sections were also counter-stained with fluorescein-labeled lectin, Ulex europeaus agglutinin (UEA-I), as described to visualize cerebral vessels.

[4] = Serial whole-body imaging (biodistribution and systemic elimination); format: in vivo, mouse; details: 100 μg i.v.; wild-type, Abcg2-KO and Abcb1-KO mice
Description: The animals were anesthetized with inhaled isoflurane (4% for induction and 1.5% for maintenance) and the fur was shaved from the head and dorsal side of the body. The labeled peptides (100 μg) or Cy5.5 free dye (~78 μg) were injected intravenously (i.v.) via the tail vein. The animals were imaged at 2, 4, 6, and 8 h post-injection using the time-domain optical imager eXplore Optix 670 (GE Healthcare Systems/ART Inc). The imaging protocols were described in detail previously.
Briefly, each animal was positioned on a platform (dorsal side facing up) that was then placed on a heated plate (at 36°C) in the imaging system. The whole-body scan or selected region of interest (ROI) scan (i.e., head) was performed as described. […] The fluorescence emission at 700 nm was collected by a highly sensitive photomultiplier tube offset by 3 mm for diffuse optical topography reconstruction. […] A pulsed light source and time-resolved detection allows the system to resolve the nanosecond timescale of fluorescence emission. […] The data were thus recorded as TPSF and the images were reconstructed as fluorescence concentration maps. Average fluorescence concentration data from ROI placed around the heads were subsequently analyzed using the software ART Optix Optiview (ART Inc., Montreal, QC, Canada). […] Brains were then extracted and scanned ex-vivo for fluorescence concentration […]

[5] = Aβ-Cy5.5 conjugate stability in serum; format: in vitro ADME, bovine; details: 1:8 v/v, ~1 μg Aβ, 37°C, 0–8 h, Tricine-SDS-PAGE, optical imaging and 6E10 immunoblot
Description: To evaluate Aβ-Cy5.5 conjugate stability in serum, the labeled peptide (5-μL volume containing ~1 μg Aβ) was added to either 35 μL of (non-inactivated) FBS or 35 μL of 1 × PBS (1: 8 dilution) and incubated at 37°C for 0, 0.5, 1, 2, 4, 6, and 8 hours, respectively. The peptides (4 μL) from each of the above reactions (40 μL/reaction) were added to the loading buffer, boiled for 10 min, and resolved on a 16% Tricine-SDS-PAGE as described. The tricine-SDS-PAGE gel was scanned in the optical imager; the peptides in the gel were then transferred to a PVDF membrane for immuno-blotting. A mouse monoclonal anti-human Aβ antibody 6E10 (1:1000 dilution) and the secondary HRP-conjugated donkey anti-mouse IgG antibody (1:5000 dilution) were used for immunodetection. ECL plus detection reagents were applied to the blots and the blots were exposed to autoradiography films.

[6] = in vivo, cited from earlier work
Description: Head ROI imaging protocols were initiated 2 hours after tracer injection, allowing 3–4 circulation half-lives; therefore, measured head fluorescence concentration was primarily indicative of the brain-accumulated/retained tracer, with small contribution of circulating tracer.

[7] = target: T1, Abcg2 (Mus musculus, UniProt Q7TMS5); assay: Time-domain in vivo optical imaging of head ROI, Abcg2-KO mice; details: i.v. injection, imaged 2–8 h, 4 animals per group
T1 construct: five pairs of adult wild-type and Abcg2^-KO mice were intravenously injected via the tail vein; tissue Taconic Farms Inc; host or cells: living FVB mice (head ROI / brain, blood-brain barrier)
T1 sequence (Q7TMS5 1-657): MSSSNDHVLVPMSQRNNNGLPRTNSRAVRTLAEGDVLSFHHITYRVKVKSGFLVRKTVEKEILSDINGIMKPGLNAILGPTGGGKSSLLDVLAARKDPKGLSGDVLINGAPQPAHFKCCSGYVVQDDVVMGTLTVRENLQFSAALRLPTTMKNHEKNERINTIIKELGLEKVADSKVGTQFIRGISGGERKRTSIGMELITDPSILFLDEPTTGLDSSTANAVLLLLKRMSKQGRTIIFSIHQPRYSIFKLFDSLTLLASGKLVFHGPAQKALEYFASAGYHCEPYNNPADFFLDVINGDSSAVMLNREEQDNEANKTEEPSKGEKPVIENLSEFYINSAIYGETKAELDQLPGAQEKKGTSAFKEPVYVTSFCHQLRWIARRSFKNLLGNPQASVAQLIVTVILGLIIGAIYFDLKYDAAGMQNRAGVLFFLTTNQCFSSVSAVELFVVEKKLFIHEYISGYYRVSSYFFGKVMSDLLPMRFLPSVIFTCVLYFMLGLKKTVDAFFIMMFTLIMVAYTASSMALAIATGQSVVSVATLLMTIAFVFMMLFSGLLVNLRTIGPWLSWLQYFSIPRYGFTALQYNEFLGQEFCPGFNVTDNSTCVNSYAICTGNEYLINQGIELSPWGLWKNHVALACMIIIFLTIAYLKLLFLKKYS
Source text: (§1) The experiments with animals have been approved by the Animal Care Committee of the National Research Council of Canada - Ottawa (NRC). Wild-type (wt), mdr-1a/b (Abcb1a/b) knockout (Abcb1^KO), and Abcg2^-KO mice of FVB background were purchased from the Taconic Farms Inc (New York, USA) and maintained in the NRC Animal Facility at Ottawa. Pairs of adult wild-type mice and Abcb1^-KO and pairs of adult wild-type and Abcg2^-KO mice of the same body weight and same sex were matched for injections and imaging experiments. After initial testing of fluorescence signal with various injected doses of Cy5.5-labeld Aβ peptides, the optimal dose selected for the experiments was 100 μg of labelled peptide in 200-μL volume. […]
(§2) Briefly, each animal was positioned on a platform (dorsal side facing up) that was then placed on a heated plate (at 36°C) in the imaging system. […] The fluorescence emission at 700 nm was collected by a highly sensitive photomultiplier tube offset by 3 mm for diffuse optical topography reconstruction. […] A pulsed light source and time-resolved detection allows the system to resolve the nanosecond timescale of fluorescence emission. […] The data were thus recorded as TPSF and the images were reconstructed as fluorescence concentration maps. […] Brains were then extracted and scanned ex-vivo for fluorescence concentration

[8] = Time-domain in vivo optical imaging of head ROI, wild-type mice; set-up: species or system mouse; details: i.v. injection, imaged 2–8 h; wild-type and KO mice
Source text: as §1, §2

[9] = no reference given; cited from earlier work
Source text: To enable prospective in vivo optical imaging of the distribution of peripherally-injected Aβ peptides, the peptides were labeled with the near-infrared fluorescent dye Cy5.5. Since the principal aim of the present study was to monitor brain distribution of Cy5.5-labeled Aβ peptide in mice lacking major ABC transporters, the fluorescent tracer itself should not be the substrate for these transporters. To compare the permeability of BBB for Cy5.5 in wild-type, Abcb1^-KO and Abcg2^-KO animals, equal amounts of Cy5.5 tracer were intravenously injected into two pairs of wild-type and knockout mice ...

[10] = system: mdr-1 P-glycoprotein/Abcb1; assay: Time-domain in vivo optical imaging of head ROI, Abcb1-KO mice; set-up: species or system mouse; details: i.v. injection, imaged 2–8 h, data not shown
Source text: as §1, §2

Molecule: Aβ1-40: Synthetic human Aβ1-40 peptide purchased from Biopeptides Co.
- Proportion of peptide present as monomers [1]: > 95%

Molecule: COc1cc2c(cc1OC)CN(CCc1ccc(NC(=O)c3cccc4c(=O)c5cccc(OC)c5[nH]c34)cc1)CC2 [GF120918]
- Effect on brain uptake of [3H]-Aβ1-40 [2]: strongly enhanced

Molecule: Cy5.5-labeled Aβ1-40: Synthetic human Aβ1-40 peptide labeled with the near-infrared fluorescent dye Cy5.5 (Mono NHS ester)
- Immunoreactive Aβ in brain sections [3]: detected
- Whole-body elimination of fluorescence [4]: almost complete disappearance of fluorescence from the body between 2 h and 4 h after injection
- Stability of conjugate in PBS ([5]; 1 × PBS): no appreciable reductions of intact Aβ peptide bands
- Stability of conjugate in serum ex vivo ([5]; non-inactivated FBS): mostly intact in the serum ex vivo up to 8 hours

Molecule: [^123I]-Aβ1-40: intracerebrally microinfused 123I-labeled Aβ1-40, literature SPECT study
- Brain clearance short t1/2 (bi-phasic) ([6]; monkey): 1.1 ~ 2.7 hours

- Head ROI fluorescence, wild-type versus Abcg2-KO [7]: not different
- Fluorescence in the head ROI after circulation time [8]: close to background
- Head ROI fluorescence, wild-type versus Abcb1-KO [10]: not different
Molecule: Cy5.5
- Plasma half-life [9]: about 30 min
- Time in which majority of the dye is cleared from the body [9]: 2 h

Molecule: [^125I]-Aβ1-40: brain-injected 125I-labeled Aβ1-40 peptide, literature
- Brain clearance t1/2 [6]: 25 min
